“Also recorded” adds a separate entry of the source.
B1: G2-4: hybridoma antibody against peptide AA 347-366 of human GP73 (sGP73); VH/VL SEQ ID NOs: 18 and 19 (antibody, V domains shown)
VH: QVQLEESGGGLVQPGGSLRLSCATSGFTFTDYYMSWVRQPPGKALEWLGFIRNKAKGYTTEYSASVKGRFTISRDNSQSILYLQMNTLRAEDSATYYCARDPSTNYWYFDVWGAGTTVTVSS
VL: DIVLTQSPSSLAVSAGEKVTMTCKSSQSLLNSRTRKNYLAWYQQKPGQSPKLLIYWASTRESGVPDRFTGSGSGTDFTLTISSVQAEDLAVYYCKQSYNLYTFGGGTKLEIKR
modifications: G2-4 heavy chain variable region (VH); G2-4 light chain variable region (VL)
B2: G2-2opti (IgG1): G2-2 optimized for expression in mammalian cells by directed mutagenesis of framework; CDRs untouched (antibody, V domains shown)
VH: QVQLVQSGGGVVQPGRSLRLSCAASGFTFSSYGMHWVRQAPGKGLEWVAVISYDGSNKYYADSVKGRFTISRDNSKNTLYLQMNSLRAEDTAVYYCAREGSAGMDVWGQGTTVTVSS
VL: QAVLTQPSSLSASPGASASLTCTLRSDISVGFHRIYWYQQKPGSPPQYLLRYKSDSDKQQGSGVPSRFSGSKDASANAGILLISGLQSDDEADYYCVIWHTSGVVFGGGTKLTVL
B3: mG2-2: G2-2 variable regions with murine IgG2a heavy chain and human Igk light chain constant regions (antibody)
heavy: EVQLLQSGGGVVQPGRSLRLSCAASGFTFSSYGMSWVRQAPGKGLEWVAVISYDGSNKYYADSVKGRFTISRDNSKNTLYLQMNSLRAEDTAVYYCAREGSAGMDVWGQGTTVTVSSASTTAPSVYPLAPVCGDTTGSSVTLGCLVKGYFPEPVTLTWNSGSLSSGVHTFPAVLQSDLYTLSSSVTVTSSTWPSQSITCNVAHPASSTKVDKKIEPRGPTIKPCPPCKCPAPNLLGGPSVFIFPPKIKDVLMISLSPIVTCVVVDVSEDDPDVQISWFVNNVEVHTAQTQTHREDYNSTLRVVSALPIQHQDWMSGKEFKCKVNNKDLPAPIERTISKPKGSVRAPQVYVLPPPEEEMTKKQVTLTCMVTDFMPEDIYVEWTNNGKTELNYKNTEPVLDSDGSYFMYSKLRVEKKNWVERNSYSCSVVHEGLHNHHTTKSFSRTPGK
light: DIQMTQPSSLSASPGASASLTCTLRSDISVGFHRIYWYQQKPGSPPQYLLRYKSDSDKQQGSGVPSRFSGSKDASANAGILLISGLQSDDEADYYCVIWHTSGVVFGGGTKVEIKRTVAAPSVFIFPPSDEQLKSGTASVVCLLNNFYPREAKVQWKVDNALQSGNSQESVTEQDSKDSTYSLSSTLTLSKADYEKHKVYACEVTHQGLSSPVTKSFNRGEC

How the values were obtained:
[1] = tested on: HEK293 GP73-His full length cells; experiment: Furin blockage experiment: sGP73 in cell culture supernatant (Up-converting Phosphor Technology); format: cell-based, human; details: 31.3 ug/ml or 62.5 ug/ml; after 96 hours
Description: FIG. 23 Measurement of sGP73 in cell culture supernatant after treatment of 293HEK GP73-His full length cells with Bevacizumab or G2-2opti (IgG1). Furin cleavage is a prerequisite for sGP73 to appear in the supernatant.
HEK293 GP73-His full length cells were seeded in 96 well plates 1500 cells per well and cultured overnight. Next day, medium was changed and cells were treated with Bevacizumab 31.3 ug/ml, Bevacizumab 62.5 ug/ml, G2-2opti(IgG1) 31.3 ug/ml or G2-2opti (IgG1) 62.5 ug/ml. To examine furin cleavage inhibition the respective antibody concentrations were chosen in a range that had no impact on cell proliferation. After 96 hours the supernatants were collected for measurement of sGP73 exploiting the Up-converting Phosphor Technology (UCP) and the remaining cell layer was used in a proliferation assay with PrestoBlue reagent (Thermofisher) described in Example 8.
For sGP73 detection each supernatant was diluted 1:1 in Hotgen dilution buffer containing an anti GP73 UCP labelled antibody. […] GP73 concentrations were deduced from differences of light emission at the C and T line measured by inserting the test cassette into the Hotgen Up-converting Phosphor Technology (UCP) Analyser.

HuH7 cells = experiment: Internalization of pHrodo Green labeled antibodies after pre-incubation with conditioned media containing soluble GP73; format: cell-based, human; details: 10 ug/ml pHrodo Green labeled antibody pre-incubated over night, 24 h at 37° C.
Description: Antibody internalization was measured by FACS using the pH-sensitive dye pHrodo Green coupled to each antibody. […] The internalization of G2-2 that binds to rGP73 is not altered as described in Example 6.
Labeled antibodies were purified by size exclusion (40K MWCO). A non binding Isotype Antibody that was not labeled with pHrodo® Green STP Ester (Iso.) was used as control for background fluorescence. 10 ug/ml of each antibody was pre-incubated over night at 4° C. with either fresh culture media or conditioned media. As conditioned media served either supernatant from HEK 293 or HEK 293 GP73-myc cells cultured for 72 hours, that was dialyzed (10 k MWCO) against 1 L fresh media each. To confirm the presence of secreted soluble GP73 after dialysis supernatants were analysed by Western Blot using an anti-myc antibody. 300 ul/well of each pre-incubated antibody was given to 0.6×10^6HuH7 cells growing in 24 well plates for 24 h at 37° C. and 5% CO2. Cells were washed and analysed by FACS.

[2] = tested on: HuH7 (human hepatocellular carcinoma); experiment: Cell viability / proliferation with PrestoBlue reagent; format: cell-based; details: 0.125 mg/ml to 2 mg/ml, after 72 hrs
Description: FIG. 13A Proliferation of HuH7 cells (human hepatocellular carcinoma) after treatment with different antibodies. HuH7 cells were treated with G2-2, G2-2 plus Cetuximab, mG2-2, mG2-2 plus Cetuximab, Cetuximab or control antibody each in increasing concentrations from 0.125 mg/ml to 2 mg/ml. Proliferating cells were measured after 72 hrs. […] This effect was independent of the Fc part i.e. human IgG1 in G2-2 or murin IgG2a in mG2-2 as described in Example 8.
FIG. 13B Proliferation of HuH7 cells (human hepatocellular carcinoma), 4T1 cells (murin breast carcinoma) and CaCo2 cells (human colorectal carcinoma) after treatment with different antibodies. The three cell lines were treated with G2-1, G2-1 plus Cetuximab, Cetuximab, Bevacizumab or Bevacizumab plus Cetuximab 2 mg/ml total. Proliferating cells were measured after 72 hrs.
Cells from the cell lines HuH7 (human hepatocellular carcinoma), 4T1 (murin breast carcinoma) and CaCo2 (human colorectal carcinoma) were cultured under standard conditions in Dulbecco's modified Eagle Medium (DMEM) supplemented with 10% fetal calf serum (FCS) at 37° C. with 5% CO2. […] Fluorescence was read at 615 nm to quantify cell viability. […]
To test the effect of G2-1 on different cell lines, HuH7, 4T1 and CaCo2 cells were transferred to 96 well plates. […] Cell viability was quantified after 72 hours using PrestoBlue reagent and measuring the fluorescence at 615 nm.

| Molecule | sGP73 in cell culture supernatant [1] | also measured |
| --- | --- | --- |
| Bevacizumab: the isotype control [reference compound] | no influence on sGP73 levels |  |
| B1 |  | effect of conditioned media containing soluble GP73 on antibody internalization / cell surface binding (HuH7 cells): reduces antibody binding; also recorded: reduces internalization |
| B2 | decreases sGP73 secretion into supernatant; also recorded: reduce GP73 concentration |  |
| B3 |  | cell proliferation / cell viability [2]: reduced depending on antibody concentration |
